# Article PMC2736567
# Target: endogenous GRB2 (human (endogenous in HEK-293T)) (UniProt P62993)
# UniProt P62993, sequence (P62993 whole entry): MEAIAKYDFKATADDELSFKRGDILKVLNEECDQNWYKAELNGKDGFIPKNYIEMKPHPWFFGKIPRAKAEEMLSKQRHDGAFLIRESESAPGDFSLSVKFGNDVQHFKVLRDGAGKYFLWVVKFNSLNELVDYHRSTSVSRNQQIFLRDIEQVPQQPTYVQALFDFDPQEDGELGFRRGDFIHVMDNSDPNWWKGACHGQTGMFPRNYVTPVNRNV
substance,measurement,value
GST-tagged hPIV3-C (full-length) (from UniProt P06165 1-199) (natural protein),Elk1 trans-reporter after EGF in HEK-293T expressing hPIV3-C without a tag,14 fold
